Reference: patent US11110182B2, “Multifunctional RNA nanoparticles and methods for treating cancer and therapeutic resistant cancer” (University of Cincinnati, priority 2016, dated 2021)

Experiment: Biosafety during therapeutic treatment (body weight, organ H&E histopathology)
Format: in vivo, athymic nude mice
Method: FIG. 12A) During therapeutic treatment to orthotopic xenograft mouse models, the body weights of mice were recorded every three days. FIG. 12B) After therapeutic treatment, major organs were excised, fixed in 10% neutral formalin buffer, embedded in paraffin, sectioned and examined for histopathology by H&E staining. Scale bar: 100 μm.
Migration and metastasis assay. The 8-μm-pore-size polycarbonate membrane, which separates the two chambers of a 6.5-mm Transwell (Costar), was coated with or without 1:8 DMEM-diluted Matrigel (Corning). […] Cells at top side of membranes were removed completely, and cells at the bottom side were examined with an Olympus SZX12 microscope and counted. • Mammosphere culture and breast cancer stem cell analyses. […] After treatment with or without 1 μM 4-OHT for 7 days, mammosphere formation was recorded using an Axiovert S100 TV inverted microscope (Zeiss). […] After resuspension with 0.5 mL PBS buffer, CD44^+/CD24^−/low cell population was analyzed by flow cytometry. • Orthotopic xenograft breast tumor mouse model, in vivo imaging and anti-tumor therapy. […] The tumor volume was monitored every 3 days, and tumor size was calculated using the formula: volume=0.5×(width)^2×(length). […]

B1: pRNA-HER2apt-siMED1: 3-WJ pRNA nanoparticle bearing a HER2-targeting RNA aptamer and two different MED1 siRNAs; strands p1 SEQ ID NO: 3, p2 SEQ ID NO: 4 (nucleic acid)
chain 1: GGACAGUGAAAGUGAGUCAAAGGAUCAAUCAUGGCCAAAGAUGUUACUUUGAGAGCCUU
chain 2: GGCUCUCAAAGUAACAUCUAAGGCCAUGUGUAUGUGGGGGGAGGACGAUGCGGUCUGCUGUGCUUGAUAUGCCCCAGACGACUCGCCCCCCACAUACUUUGUUGAUCCAAUGACUCACUUUCACUGUCCUU
modifications: 2'-F modification; third strand may lack entry; pRNA-HER2apt-siMED1, p1; pRNA-HER2apt-siMED1, p2
histopathology of heart, liver, spleen, lung and kidney (H&E staining after therapeutic treatment): no evidence of any apparent organ injury or disturbance
mouse body weight (entire treatment period, systemic administration): no significant reduction
